Data published in patent publication US20230035403A1, “Method For Determining Responsiveness To Prostate Cancer Treatment” (Janssen Biotech, Inc., priority 2020, published 2023).

Target: HLA-B*08:01 (human)
Assay: UV-induced peptide exchange, HLA class I ELISA; Pos peptide = 100%
Details: remark: other sources report otherwise

RVGNCKHLK (here or on the partner: biotinylated heavy chain) [P82 9-mer …]
exchange rate with Pos peptide: 1.4%

FLFLLLPLS (here or on the partner: biotinylated heavy chain) [P87 9-mer …]
exchange rate with Pos peptide: 3.1%

LMAQRLLLR (here or on the partner: biotinylated heavy chain) [P97 9-mer …]
exchange rate with Pos peptide: 2.7%

IVWWCPMSR (here or on the partner: biotinylated heavy chain) [P98 9-mer …]
exchange rate with Pos peptide: 2.4%

IPVLTRWPL (here or on the partner: biotinylated heavy chain) [P19 9-mer …]
exchange rate with Pos peptide: 14.5%

QLIAMDSAI (here or on the partner: biotinylated heavy chain) [P22 9-mer …]
exchange rate with Pos peptide: 3.9%

CPMSRLRLA (here or on the partner: biotinylated heavy chain) [P46 9-mer …]
exchange rate with Pos peptide: 14.5%

RAKCKFSIL (here or on the partner: biotinylated heavy chain) [P56 9-mer …]
exchange rate with Pos peptide: 38%

HVPKILSGK (here or on the partner: biotinylated heavy chain) [P58 9-mer …]
exchange rate with Pos peptide: 5.3%

YLRRQKRLK (here or on the partner: biotinylated heavy chain) [P60 9-mer …]
exchange rate with Pos peptide: 10.2%

CYLGRQKRF (here or on the partner: biotinylated heavy chain) [P61 9-mer …]
exchange rate with Pos peptide: 3.6%

LLERNSFEV (here or on the partner: biotinylated heavy chain) [P73 9-mer …]
exchange rate with Pos peptide: 2.6%
